We go through four sequences from the Immune Epitope Database (IEDB).

A value given as a limit tells only on which side of the number the result lay.

For orientation: Kd means the free concentration of one partner at which half of the binding sites on the other are occupied at equilibrium, for simple one-to-one binding.

Assay [1] addresses HLA-A*01:01. Description: IEDB peptide-MHC binding, purified MHC/direct/fluorescence; filed as Kd, often an IC50 or EC50 that approximates it; ≥ and ≤ were set here for values at or beyond the usual limits of such assays.
Assay [2] has as its target HLA-A*02:01. Described as above.
Assay [3] has as its target HLA-A*03:01. The description is as above.
Assay [4] deals with HLA-A*24:02. Described as above. Particulars: source organism: Influenza A virus (A/quail/Hong Kong/FY298/00(H9N2)).
Assay [5] deals with HLA-A*69:01. Described as above.
Assay [6] has as its target HLA-B*07:02. The assay is described as above.
Assay [7] addresses HLA-B*08:01. The assay is described as above.
In assay [8] the target is HLA-B*15:01. The assay is described as above.
For assay [9], the target named is HLA-B*15:09. The assay is described as above.
The target in assay [10] is HLA-B*18:01. The description is as above.
For assay [11], the target named is HLA-B*27:05. Described as above.
The target in assay [12] is HLA-B*40:01. The assay is described as above.
The target of assay [13] is HLA-B*44:02. The description is as above.
For assay [14], the target named is HLA-B*46:01. The description is as above.
For assay [15], the target named is HLA-B*58:01. Described as above.
The target in assay [16] is HLA-A*11:01. Described as above.
Assay [17] has as its target HLA-A*26:01. The assay is described as above. Particulars: source organism: Burkholderia mallei ATCC 23344.
For assay [18], the target named is HLA-A*31:01. The assay is described as above.
For assay [19], the target named is HLA-A*68:02. The assay is described as above. Particulars: source organism: Burkholderia mallei.
The target in assay [20] is HLA-B*15:17. Described as above. Particulars: source organism: Burkholderia mallei.
Assay [21] has as its target HLA-B*39:01. The assay is described as above. The conditions noted are these: source organism: Burkholderia mallei ATCC 23344.
In assay [22] the target is HLA-B*48:01. Described as above.
The target in assay [23] is HLA-B*57:01. The description is as above.
Assay [24] concerns the target HLA-A*02:11. Put plainly: IEDB peptide-MHC binding, purified MHC/competitive/fluorescence; filed as Kd, often an IC50 or EC50 that approximates it; ≥ and ≤ were set here for values at or beyond the usual limits of such assays. The conditions noted are these: source organism: Salmonella enterica subsp. enterica serovar Typhimurium str. LT2.
Assay [25] concerns the target HLA-A*02:12. The description is as above. Particulars: source organism: Salmonella enterica subsp. enterica serovar Typhimurium str. LT2.
Assay [26] concerns the target HLA-A*02:19. Described as above. The conditions noted are these: source organism: Salmonella enterica subsp. enterica serovar Typhimurium str. LT2.
Assay [27] deals with HLA-A*03:01. Described as above. Particulars: source organism: Salmonella enterica subsp. enterica serovar Typhimurium str. LT2.
The target of assay [28] is HLA-A*23:01. Described as above. The conditions noted are these: source organism: Salmonella enterica subsp. enterica serovar Typhimurium str. LT2.
Assay [29] concerns the target HLA-A*24:03. The description is as above. Particulars: source organism: Salmonella enterica subsp. enterica serovar Typhimurium str. LT2.
Assay [30] addresses HLA-A*26:01. The assay is described as above. The conditions noted are these: source organism: Salmonella enterica subsp. enterica serovar Typhimurium str. LT2.
In assay [31] the target is HLA-A*29:02. The assay is described as above. The conditions noted are these: source organism: Salmonella enterica subsp. enterica serovar Typhimurium str. LT2.
In assay [32] the target is HLA-A*69:01. The assay is described as above. Particulars: source organism: Salmonella enterica subsp. enterica serovar Typhimurium str. LT2.
Assay [33] has as its target HLA-B*15:01. Described as above. Particulars: source organism: Salmonella enterica subsp. enterica serovar Typhimurium str. LT2.
In assay [34] the target is HLA-B*15:17. The description is as above. Particulars: source organism: Salmonella enterica subsp. enterica serovar Typhimurium str. LT2.
In assay [35] the target is HLA-B*18:01. The description is as above. The conditions noted are these: source organism: Salmonella enterica subsp. enterica serovar Typhimurium str. LT2.
Assay [36] deals with HLA-B*27:03. The assay is described as above. Particulars: source organism: Salmonella enterica subsp. enterica serovar Typhimurium str. LT2.
For assay [37], the target named is HLA-B*39:01. Described as above. Particulars: source organism: Salmonella enterica subsp. enterica serovar Typhimurium str. LT2.
The target in assay [38] is HLA-B*46:01. The description is as above. Particulars: source organism: Salmonella enterica subsp. enterica serovar Typhimurium str. LT2.
The target in assay [39] is HLA-B*51:01. Described as above. The conditions noted are these: source organism: Salmonella enterica subsp. enterica serovar Typhimurium str. LT2.
Assay [40] addresses HLA-B*57:01. The description is as above. Particulars: source organism: Salmonella enterica subsp. enterica serovar Typhimurium str. LT2.
The mark [41] stands for this setting: source organism: Influenza A virus (A/quail/Hong Kong/FY298/00(H9N2)).
The mark [42] stands for this setting: source organism: Burkholderia mallei.
[43] abbreviates: source organism: Burkholderia mallei ATCC 23344.
[44] abbreviates: source organism: Yellow fever virus 17D.

Take ALTLNTMTK: the Kd in [1] (setting [41]) was no less than 20 µM; in assay [2] (setting [41]), no less than 20 µM; in assay [3] (source organism: Influenza A virus (A/Puerto Rico/8/34/Mount Sinai(H1N1))) it was 0.724 µM; in assay [4], no less than 20 µM; in [5] (setting [41]), no less than 20 µM; in assay [6] (setting [41]), no less than 20 µM. The Kd in assay [7] (setting [41]), in assay [8] (setting [41]), in assay [9] (source organism: Influenza A virus(A/swine/Henan/5/2004(H9N2))), in [10] (setting [41]), in assay [11] (setting [41]) and in [12] (setting [41]) was no less than 20 µM each time. The Kd in [13] (setting [41]), in [14] (setting [41]) and in assay [15] (setting [41]) was no less than 20 µM in each case.

On to FEIGNGDAG, for which the Kd in assay [1] (setting [42]), in assay [2] (setting [42]), in assay [3] (setting [42]), in [16] (setting [42]), in assay [17] and in assay [18] (setting [42]) was no less than 20 µM in each case. Further, the Kd in assay [19], in assay [5] (setting [42]), in assay [6] (setting [42]), in assay [7] (setting [43]), in assay [8] (setting [42]) and in assay [9] (setting [43]) was no less than 20 µM throughout. Also, the Kd in [20], in assay [10] (setting [42]), in [11] (setting [42]), in assay [21], in assay [12] (setting [42]) and in [13] (setting [42]) was no less than 20 µM throughout. Further, the Kd in assay [22] (setting [42]), in assay [23] (setting [42]) and in assay [15] (setting [42]) was no less than 20 µM in each case.

Consider ILNSDDEQA, for which the Kd in [24] is 0.142 µM; in [25], no less than 20 µM; in [26] it was 1.63 µM; in assay [27], no less than 20 µM; in assay [28], no less than 20 µM; in assay [29] it was no less than 20 µM. In addition, the Kd was no less than 20 µM in assay [30]; 0.644 µM in assay [31]; no less than 20 µM in [32]; no less than 20 µM in assay [33]; no less than 20 µM in assay [34]; no less than 20 µM in assay [35]. The Kd in assay [36], in assay [37], in assay [38], in assay [39] and in [40] was no less than 20 µM each time.

Turning to VRGGMVAPL, the Kd in assay [1] (setting [44]), in assay [2] (setting [44]), in assay [3] (setting [44]), in assay [16] (setting [44]), in assay [18] (setting [44]) and in [5] (setting [44]) was no less than 20 µM in each case. In addition, the Kd in assay [8] (setting [44]), in assay [9] (source organism: Yellow fever virus), in assay [10] (setting [44]), in [11] (setting [44]), in assay [12] (setting [44]) and in assay [13] (setting [44]) was no less than 20 µM throughout. Further, the Kd in assay [14] (setting [44]), in assay [22] (setting [44]), in assay [23] (setting [44]) and in assay [15] (setting [44]) was no less than 20 µM each time.
